From patent US20160340421A1 (Regeneron, published 2016)
Values belong to the binder of their own block, whether it stands above or below them.

Columns and labels:
[1] = target: T1, Human GDF8 homodimer (mature human Growth and Differentiation Factor-8) (human, UniProt O14793 267-375); assay: cell-based or functional assay
T1 sequence: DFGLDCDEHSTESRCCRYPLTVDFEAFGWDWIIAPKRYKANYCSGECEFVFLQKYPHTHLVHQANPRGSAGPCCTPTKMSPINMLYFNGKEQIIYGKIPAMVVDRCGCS

hGDF11 homodimer [2] = target: T2, hGDF11 homodimer (human, UniProt O95390 299-407); assay: cell-based or functional assay
T2 sequence (looked up): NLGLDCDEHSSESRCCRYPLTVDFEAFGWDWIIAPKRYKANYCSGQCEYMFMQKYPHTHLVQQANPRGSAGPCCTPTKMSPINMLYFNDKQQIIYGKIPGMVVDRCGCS

[3] = target: T1, Human GDF8 homodimer (mature human …); assay: cell-based or functional assay; remark: listed apart in the source
hGDF11 homodimer [4] = target: T2, hGDF11 homodimer; assay: cell-based or functional assay; remark: listed apart in the source
[5] = target: T1, Human GDF8 homodimer (mature human …); assay: SPR, antibody captured, 25 nM antigen
Method: (§1) Equilibrium dissociation constants (KD values) for antigen binding to selected antibodies were determined by surface kinetics using a real-time biosensor surface plasmon resonance assay (BIACORE™ 2000). Each selected antibody was captured on either a goat anti-mouse IgG polyclonal antibody surface or a goat anti-hFc polyclonal antibody (Jackson Immuno Research Lab) surface created through direct chemical coupling to a BIACORE™ chip to form a captured antibody surface. Human GDF8 homodimer, hGDF11 homodimer, or hGDF5 homodimer at 25 nM was injected over the captured antibody surfaces, and antigen-antibody binding and dissociation were monitored in real time at room temperature. Kinetic analysis was performed to calculate KD, dissociation rate constants (kd), association rate constants (ka) and half-life of antigen/antibody complex dissociation (Table 2).

hGDF11 homodimer [6] = target: T2, hGDF11 homodimer; assay: SPR, antibody captured, 25 nM antigen
Method: as §1

[7] = target: T3, B48 chimera: GDF8.1-47.BMP2.48-77.GDF8.73-109; assay: Western blot of CHO.hFurin supernatant, antibody 2 µg/ml
T3 construct: CHO.hFurin supernatant
T3 chain: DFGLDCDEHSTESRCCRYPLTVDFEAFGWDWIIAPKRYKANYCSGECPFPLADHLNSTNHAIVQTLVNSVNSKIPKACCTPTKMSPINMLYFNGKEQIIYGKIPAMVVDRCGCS
Method: (§2) The various chimeric GDF8 pro-proteins were transiently transfected in an engineered stable CHO.hFurin cell line. A similar Western Blot analysis as described above was used to detect the binding of various anti-hGDF8 antibodies to each of the chimeric GDF8. Briefly, […] of CHO supernatant were loaded onto each lane of an SDS-PAGE (non-reducing or reducing) gel and electroblotted onto a PVDF membrane. The membrane was then incubated with an anti-GDF8 antibody at 2 μg/ml followed by exposure to the appropriate secondary antibody conjugated to HRP.

[8] = target: T4, B91 chimera: GDF8.1-90.BMP2.96-110.GDF8.106-109; assay: as above
T4 construct: CHO.hFurin supernatant
T4 chain: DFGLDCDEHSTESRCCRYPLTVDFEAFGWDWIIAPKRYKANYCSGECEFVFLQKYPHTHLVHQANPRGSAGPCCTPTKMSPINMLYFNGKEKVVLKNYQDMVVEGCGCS
Method: as §2

[9] = target: T5, T65 chimera: GDF8.1-64.TGFβ1.69-76.GDF8.73-109 (Mus musculus (Mouse), UniProt O08689 268-376); assay: as above
T5 construct: CHO.hFurin supernatant
T5 chain: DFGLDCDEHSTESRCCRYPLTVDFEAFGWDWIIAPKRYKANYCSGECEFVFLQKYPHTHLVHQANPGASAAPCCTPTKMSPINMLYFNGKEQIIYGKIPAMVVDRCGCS
Method: as §2

[10] = target: T1, Human GDF8 homodimer (mature human …); assay: SPR Biacore T100, captured on anti-hFc, 25°C
Method: (§3) Additional antigen binding experiments were conducted in which GDF8 and GDF11 were applied over a surface of selected anti-GDF8 antibodies and control antibodies at 25° C. and 37° C. Equilibrium dissociation constants (KD values) for antigen binding to selected antibodies were determined by surface kinetics using a real-time biosensor surface plasmon resonance assay (BIACORE™ T100). […] Various concentrations (2.5-0.625 nM, 2-fold dilutions) of hGDF8 homodimer or hGDF11 homodimer (or in some experiments, Activin A) were injected over the captured antibody surfaces, and antigen-antibody binding and dissociation were monitored in real time. Kinetic analysis was performed to calculate KD, dissociation rate constants (kd), association rate constants (ka) and half-life of antigen/antibody complex dissociation. (NB=no binding observed).

[11] = target: T1, Human GDF8 homodimer (mature human …); assay: SPR Biacore T100, captured on anti-hFc, 37°C
Method: as §3

[12] = target: T6, GDF8/TGFβ[48-72] chimera (T48): GDF8.1-47.TGFβ1.49-76.GDF8.73-109 (human GDF8 with human TGFβ-1 sequence); assay: cell-based or functional assay
T6 chain: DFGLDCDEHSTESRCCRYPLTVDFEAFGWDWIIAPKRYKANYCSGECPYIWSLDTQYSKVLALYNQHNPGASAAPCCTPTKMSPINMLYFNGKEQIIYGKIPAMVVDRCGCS

[13] = target: T1, Human GDF8 homodimer (mature human …); assay: SPR, antibody captured, buffer without BSA
Method: as §1

hGDF11 homodimer [14] = target: T2, hGDF11 homodimer; assay: SPR, antibody captured, buffer without BSA
Method: as §1

hGDF11 homodimer [15] = target: T2, hGDF11 homodimer; assay: GDF11-inducible luciferase bioassay, 0.4 nM GDF11 (legend: NB=no binding)

IC50, GDF8-inducible luciferase, A204/Smad2 cells, 0.8 nM GDF8 [1]: 0.8 nM
IC50, GDF11-inducible luciferase, A204/Smad2 cells, 0.8 nM GDF11 (hGDF11 homodimer [2]): 1400 nM
IC50, luciferase bioassay, 0.5 nM GDF8 [3]: 0.196 nM
IC50, luciferase bioassay, 1 nM GDF8 [3]: 0.363 nM
IC50, luciferase bioassay, 0.4 nM GDF11 (hGDF11 homodimer [4]): ~600 nM
IC50, luciferase bioassay, 0.8 nM GDF11 (hGDF11 homodimer [4]): ~800 nM
Kd [5]: 0.32 nM
T1/2 [5]: 1 h
Kd (hGDF11 homodimer [6]): 0.3 nM
T1/2 (hGDF11 homodimer [6]): 0.467 h
binding result [7]: binds
binding result [8]: binds
binding result [9]: binds
B1: 1A2 (antibody, V domains shown)
VH: EVQLLESGGGLVQPGGSLRLSCAASGFTSITYAMSWVRQAPGKGLEWVSAISVSGTNTYYADSVKGRFTISRDKSKNMLYLQMNSLRAEDTAVYYCAKDLLHNWKYGTFDIWGQGTMVTVSS
VL: EIVMTQSPATLSVSPGERATLSCRASQSVDSNLVWYQQKPGQVPRLLIYGASTRATGIPARFSGSGSGTEFTLTISSLQSEDFAVYYCQQYNKWPLTFGGGTKVEIK
notes: also called 1A2 mAb

Kd [10]: 0.0623 nM
T1/2 [10]: 1.6 h
Kd [11]: 0.0462 nM
T1/2 [11]: 0.65 h
B2: 1A2-hIgG1 (antibody, V domains shown)
VH: EVQLLESGGGLVQPGGSLRLSCAASGFTSITYAMSWVRQAPGKGLEWVSAISVSGTNTYYADSVKGRFTISRDKSKNMLYLQMNSLRAEDTAVYYCAKDLLHNWKYGTFDIWGQGTMVTVSS
VL: EIVMTQSPATLSVSPGERATLSCRASQSVDSNLVWYQQKPGQVPRLLIYGASTRATGIPARFSGSGSGTEFTLTISSLQSEDFAVYYCQQYNKWPLTFGGGTKVEIK
notes: variable domains of 1A2; also called 1A2-hlgG1

approximate IC50, luciferase bioassay with GDF8/TGFβ[48-72] conditioned medium [12]: 0.357 nM
B3: 1A2-hFc (antibody, V domains shown)
VH: EVQLLESGGGLVQPGGSLRLSCAASGFTSITYAMSWVRQAPGKGLEWVSAISVSGTNTYYADSVKGRFTISRDKSKNMLYLQMNSLRAEDTAVYYCAKDLLHNWKYGTFDIWGQGTMVTVSS
VL: EIVMTQSPATLSVSPGERATLSCRASQSVDSNLVWYQQKPGQVPRLLIYGASTRATGIPARFSGSGSGTEFTLTISSLQSEDFAVYYCQQYNKWPLTFGGGTKVEIK

Kd [13]: 0.018 nM
T1/2 [13]: 2.53 h
Kd (hGDF11 homodimer [14]): 0.926 nM
T1/2 (hGDF11 homodimer [14]): 1 min
B4: 1A2-mIgG (antibody, V domains shown)
VH: EVQLLESGGGLVQPGGSLRLSCAASGFTSITYAMSWVRQAPGKGLEWVSAISVSGTNTYYADSVKGRFTISRDKSKNMLYLQMNSLRAEDTAVYYCAKDLLHNWKYGTFDIWGQGTMVTVSS
VL: EIVMTQSPATLSVSPGERATLSCRASQSVDSNLVWYQQKPGQVPRLLIYGASTRATGIPARFSGSGSGTEFTLTISSLQSEDFAVYYCQQYNKWPLTFGGGTKVEIK
notes: variable domains of 1A2

Kd [13]: 0.006 nM
T1/2 [13]: 5.67 h
Kd (hGDF11 homodimer [14]): 0.64 nM
T1/2 (hGDF11 homodimer [14]): 6 min
B5: 1A2-hIgG (antibody, V domains shown)
VH: EVQLLESGGGLVQPGGSLRLSCAASGFTSITYAMSWVRQAPGKGLEWVSAISVSGTNTYYADSVKGRFTISRDKSKNMLYLQMNSLRAEDTAVYYCAKDLLHNWKYGTFDIWGQGTMVTVSS
VL: EIVMTQSPATLSVSPGERATLSCRASQSVDSNLVWYQQKPGQVPRLLIYGASTRATGIPARFSGSGSGTEFTLTISSLQSEDFAVYYCQQYNKWPLTFGGGTKVEIK
notes: variable domains of 1A2

IC50, GDF8-inducible luciferase, A204/Smad2 cells, 0.8 nM GDF8 [1]: 8.5 nM
IC50, GDF11-inducible luciferase, A204/Smad2 cells, 0.8 nM GDF11 (hGDF11 homodimer [2]): 35 nM
IC50, luciferase bioassay, 0.5 nM GDF8 [3]: 2.34 nM
IC50, luciferase bioassay, 1 nM GDF8 [3]: 2.98 nM
IC50, luciferase bioassay, 0.4 nM GDF11 (hGDF11 homodimer [4]): 6.9 nM
IC50, luciferase bioassay, 0.8 nM GDF11 (hGDF11 homodimer [4]): 10.5 nM
Kd [5]: 0.26 nM
T1/2 [5]: 2.3 h
Kd (hGDF11 homodimer [6]): 0.12 nM
T1/2 (hGDF11 homodimer [6]): 1.93 h
B6: 21-E5 (antibody, V domains shown)
VH: QVQLVESGPGLVKPSETLSLTCTVYGGSISSGNYYWGWIRQPPGKGLEWIGTIYYSGSAYYNPSLKSRVTMSVDTSKNQFSLKLSSVTAADTAVYYCVRDYYDSSGHYYNWFDPWGQGTTVTVSS
VL: AIQMTQSPSSLSASVGDRVTITCRASQDIRHDLGWYQQKPGKAPKRLIYAASSLQSGVPSRFSGSGSGTEFTLTISSLQPEDFATYYCLQHNTYPWTFGQGTKVEIKR

IC50, luciferase bioassay, 0.5 nM GDF8 [3]: 0.9 nM
Kd [10]: 0.0393 nM
T1/2 [10]: 2.18 h
Kd [11]: 0.0584 nM
T1/2 [11]: 0.667 h
binding result (hGDF11 homodimer [15]): no binding
B7: H4H1669P (antibody, V domains shown)
VH: QVQLVESGGGVVQPGKSLRLSCAASGFTFSSFGMHWVRQAPGKGLEWVAVIGYDGGNEYYADSVKGRFTISRDNSKNTLNLQMSSLRAEDTAVYYCSTISHYDILSGMDVWGRGTTVTVSS
VL: DIQMTQSPSSVSASVGDRVTITCRASQGISNWLAWYQQKPGKAPKLLIFAASSLQSGVPSRFSGSASGTDFTLTINSLQPEDFATYYCQQANSFPLTFGGGTKVEIKR
notes: captured by anti-hFc, so human Fc

IC50, GDF8-inducible luciferase, A204/Smad2 cells, 0.8 nM GDF8 [1]: 9.7 nM
IC50, GDF11-inducible luciferase, A204/Smad2 cells, 0.8 nM GDF11 (hGDF11 homodimer [2]): > 10 nM
Kd [5]: 0.4 nM
T1/2 [5]: 1.3 h
Kd (hGDF11 homodimer [6]): 0.9 nM
T1/2 (hGDF11 homodimer [6]): 0.35 h
B8: 21-A2 (antibody, V domains shown)
VH: QVQLVQSGGGLVQPGGSLRLSCAASGFTFNTYAISWVRQAPGKGLEWVSTITGSGYNTYYADSVKGRFTISRDNSKNTLYLQMSSLRAEDTAVFYCAKDSRYNWNYGIFDYWGQGTTVTVSS
VL: DIQMTQSPATLSVSPGERATLSCRASQSVSSNLAWYHQKPGQAPRLLIYGVSTRATGIPARFSGNGSGTEFTLTISSLQSEDFAVYYCQQHNNWPLTFGGGTKVEIKR
